Measured values taken from publication PMC3484135, “A Divalent Ion Is Crucial in the Structure and Dominant-Negative Function of ID Proteins, a Class of Helix-Loop-Helix Transcription Regulators” (PLoS ONE, 2012).

Target: the molecule itself
Assay: crystal structure; hanging drop vapor diffusion; protein 7 mg/ml in 50 mM Tris pH 8.0, 100 mM NaCl; precipitant 0.1 M MES pH 6.5, 2.0 M potassium acetate; 2.1Å native dataset, phased from a Se-Met SAD dataset

B1: ID2 HLH (residues 24–82) with a C-terminal 14 amino acid stabilising polypeptide (domain or fragment, human)
chain: RSKTPVDDPMSLLYNMNDCYSKLKELVPSIPQNKKVSKMEILQHVIDYILDLQIALDSHLKPSFLVQSGDIAS
notes: ID2, human, HLH domain, residues 24–82, cloned from full-length cDNA (Genecopoeia Z0585); C-terminal 14 amino acid polypeptide added to increase stability; Expressed from pDest-565 with a TEV site at the N terminus of ID2 HLH; The native crystal is called ID2-Nterm-HLH in the methods, and a Se-Met form (ID2-HLH-Se-Met) was used for phasing; also called wild type ID2; ID2 WT; source: E. coli …
stoichiometry N: 2
